As usually defined, the Kd is the equilibrium constant for the complex coming apart.

Assay [1] addresses T1, cynomolgus monkey FcγRIIIaS extracellular domain, C-terminal His-tag (cynomolgus monkey, UniProt A3RFZ7 21-206 (rhesus entry)).
T1 construct: also called cyno FcγRIIIaS; cynoFcγRIIIaS; not shown: His-tag added to C-terminus
In words: SPR (Biacore), KD of SG1 / KD of variant.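 Also: relative to parent M103205H795-SG1 carrying the SG1 human heavy chain constant region.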

In assay [2] the target is T2, cynomolgus monkey FcγRIIa1 extracellular domain, C-terminal His-tag (cynomolgus monkey).
T2 construct: also called cyno FcγRIIa1; cynoFcgRIIa1; not shown: His-tag added to C-terminus
T2 chain: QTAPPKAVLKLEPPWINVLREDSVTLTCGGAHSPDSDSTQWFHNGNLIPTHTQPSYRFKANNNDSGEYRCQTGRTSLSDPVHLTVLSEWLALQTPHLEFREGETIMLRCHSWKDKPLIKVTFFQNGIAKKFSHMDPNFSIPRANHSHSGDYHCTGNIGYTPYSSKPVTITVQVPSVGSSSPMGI
In words: SPR (Biacore), antibody captured, FcgR analyte, 25 C. (In general: Surface plasmon resonance follows binding to a sensor surface in real time, without labels.)

For assay [3], the target named is T3, cynomolgus monkey FcγRIIb extracellular domain, C-terminal His-tag (cynomolgus monkey).
T3 construct: also called cyno FcγRIIb; cynoFcγRIIb; not shown: His-tag added to C-terminus
T3 chain: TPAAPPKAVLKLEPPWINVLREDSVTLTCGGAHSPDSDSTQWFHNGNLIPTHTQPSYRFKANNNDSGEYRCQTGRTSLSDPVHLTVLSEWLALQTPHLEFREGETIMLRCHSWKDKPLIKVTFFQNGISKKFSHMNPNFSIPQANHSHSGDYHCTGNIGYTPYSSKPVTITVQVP
The description is as above.

The target in assay [4] is T4, human FcγRIIaH extracellular domain, C-terminal His-tag (human, UniProt P12318 34-217).
T4 construct: also called human FcγRIIa (type H); FcgRIIaH; not shown: His-tag added to C-terminus
T4 sequence: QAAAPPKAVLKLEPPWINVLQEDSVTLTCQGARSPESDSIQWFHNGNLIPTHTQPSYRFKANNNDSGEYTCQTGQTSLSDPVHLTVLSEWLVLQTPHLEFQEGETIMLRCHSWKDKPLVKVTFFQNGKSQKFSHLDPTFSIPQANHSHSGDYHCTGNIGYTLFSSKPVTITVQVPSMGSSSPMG
The assay is described as above.

In assay [5] the target is T1, cynomolgus monkey FcγRIIIaS …. Described as above.
Assay [6] has as its target T5, human FcγRIIaR extracellular domain, C-terminal His-tag (human, UniProt P12318 34-217).
T5 construct: also called human FcγRIIa (type R); FcgRIIaR; not shown: His-tag added to C-terminus
T5 chain: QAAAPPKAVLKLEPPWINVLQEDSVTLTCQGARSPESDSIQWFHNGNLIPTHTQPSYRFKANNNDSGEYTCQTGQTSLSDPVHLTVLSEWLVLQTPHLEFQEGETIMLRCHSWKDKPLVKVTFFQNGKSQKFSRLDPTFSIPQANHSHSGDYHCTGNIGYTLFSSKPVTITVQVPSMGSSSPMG
Described as above.

The target of assay [7] is T6, human FcγRIIIaV extracellular domain, C-terminal His-tag (human, UniProt P08637 17-208).
T6 construct: also called FcgRIIIaV; not shown: His-tag added to C-terminus
Described as above.

For assay [8], the target named is T7, cynomolgus monkey FcγRIIa3 extracellular domain, C-terminal His-tag (cynomolgus monkey).
T7 construct: also called cyno FcγRIIa3; cynoFcgRIIa3; not shown: His-tag added to C-terminus
T7 chain: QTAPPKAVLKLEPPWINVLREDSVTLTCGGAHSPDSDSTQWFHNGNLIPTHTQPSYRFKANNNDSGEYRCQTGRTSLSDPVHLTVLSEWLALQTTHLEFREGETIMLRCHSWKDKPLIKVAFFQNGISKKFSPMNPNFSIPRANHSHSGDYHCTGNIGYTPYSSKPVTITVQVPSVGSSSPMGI
The description is as above.

Assay [9] has as its target T8, human FcγRIIb extracellular domain, C-terminal His-tag (human, UniProt P31994 43-217).
T8 construct: also called FcgRIIb (human); not shown: His-tag added to C-terminus
T8 sequence: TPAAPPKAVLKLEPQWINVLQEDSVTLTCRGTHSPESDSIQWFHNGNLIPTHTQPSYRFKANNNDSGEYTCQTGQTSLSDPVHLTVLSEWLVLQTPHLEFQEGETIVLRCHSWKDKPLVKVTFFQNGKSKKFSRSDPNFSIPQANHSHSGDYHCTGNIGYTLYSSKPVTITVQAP
The assay is described as above.

T6 sequence (P08637 17-208 F176V): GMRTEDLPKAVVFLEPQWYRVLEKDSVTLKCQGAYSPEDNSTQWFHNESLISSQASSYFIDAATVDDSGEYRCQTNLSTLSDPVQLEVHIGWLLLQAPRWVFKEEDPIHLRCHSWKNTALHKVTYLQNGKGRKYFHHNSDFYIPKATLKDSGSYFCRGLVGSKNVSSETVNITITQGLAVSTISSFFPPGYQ
T1 sequence (A3RFZ7 21-206): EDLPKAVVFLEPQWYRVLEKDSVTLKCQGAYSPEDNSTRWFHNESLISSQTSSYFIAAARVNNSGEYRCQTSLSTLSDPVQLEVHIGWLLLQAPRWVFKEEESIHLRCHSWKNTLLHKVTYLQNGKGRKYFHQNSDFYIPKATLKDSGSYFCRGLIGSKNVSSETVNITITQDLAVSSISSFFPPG

B1: M103205H795-MY227/M103202L889-SK1 (antibody, human IgG1, kappa)
heavy: QVTLKESGPVLVKPTETLTLTCTVSGIDLSHDDISWVRQAPGKGLEWVGIISYAGSTYYASWAKGRLTISKDTSKNQVVLTMTNMDPVDTATYYCARGVPAYSHGGDLWGQGTLVTVSSASTKGPSVFPLAPSSKSTSGGTAALGCLVKDYFPEPVTVSWNSGALTSGVHTFPAVLQSSGLYSLSSVVTVPSSSLGTQTYICNVNHKPSNTKVDKKVEPKSCDKTHTCPPCPAPELLGYPSVFLFPPKPKDTLMISRTPEVTCVVVDVSDEDPEVKFNWYVDGVEVHNAKTKPREEQYNSTYRVVSVLTVLHQDWLNGKEYKCKVSNKALPKPIEKTISKAKGQPREPQVYTLPPSREEMTKNQVSLTCLVKGFYPSDIAVEWESNGQPENNYKTTPKVLDSDGSFFLYSKLTVDKSRWQQGNVFSCSVMHEALHNHYTQKSLSLSP
light: DIVMTQSPATLSLSPGERATLSCTSSQSVYHANWLSWFQQKPGQPPKLLIYWASTLAYGVPSRFSGSGSGTDFTLTISSLQPEDAATYYCAGGYGGGRYAFGQGTKVEIKRTVAAPSVFIFPPSDEQLKSGTASVVCLLNNFYPREAKVQWKVDNALQSGNSQESVTEQDSKDSTYSLSSTLTLSKADYEKHKVYACEVTHQGLSSPVTKSFNRGEC
On to B1, for which the “KD fold (SG1 = 1)” value in assay [1] was determined as 0.09 fold. Besides, the Kd in assay [2] came out at 1900 nM; in assay [3], 510 nM; in assay [4], 1300 nM; in assay [5] it was 3900 nM; in [6], 62 nM; in assay [7] it was 18000 nM. In addition, the equilibrium dissociation constant (Kd) in assay [8] is 2500 nM; in [9] it was 130 nM.

B2: M103205H795-MY269/M103202L889-SK1 (antibody, human IgG1, kappa)
heavy: QVTLKESGPVLVKPTETLTLTCTVSGIDLSHDDISWVRQAPGKGLEWVGIISYAGSTYYASWAKGRLTISKDTSKNQVVLTMTNMDPVDTATYYCARGVPAYSHGGDLWGQGTLVTVSSASTKGPSVFPLAPSSKSTSGGTAALGCLVKDYFPEPVTVSWNSGALTSGVHTFPAVLQSSGLYSLSSVVTVPSSSLGTQTYICNVNHKPSNTKVDKKVEPKSCDKTHTCPPCPAPELLMGPSVFLFPPKPKDTLMISRTPEVTCVVVDVSDEDPEVKFNWYVDGVEVHNAKTKPREEQYNSTYRVVSVLTVLHQDWLNGKEYKCKVSNKALPKPIEKTISKAKGQPREPQVYTLPPSREEMTKNQVSLTCLVKGFYPSDIAVEWESNGQPENNYKTTPKVLDSDGSFFLYSKLTVDKSRWQQGNVFSCSVMHEALHNHYTQKSLSLSP
light: DIVMTQSPATLSLSPGERATLSCTSSQSVYHANWLSWFQQKPGQPPKLLIYWASTLAYGVPSRFSGSGSGTDFTLTISSLQPEDAATYYCAGGYGGGRYAFGQGTKVEIKRTVAAPSVFIFPPSDEQLKSGTASVVCLLNNFYPREAKVQWKVDNALQSGNSQESVTEQDSKDSTYSLSSTLTLSKADYEKHKVYACEVTHQGLSSPVTKSFNRGEC
In the case of B2, in assay [1], the “KD fold (SG1 = 1)” value amounted to 1.64 fold. The Kd turned out to be 2300 nM in assay [2]; 350 nM in assay [3]; 230 nM in assay [4]; 220 nM in assay [5]; 720 nM in assay [6]; 1100 nM in assay [7]. The results for the Kd in assay [8] and in [9] were 6400 nM and 2100 nM, respectively.

B3: M103205H795-MY242/M103202L889-SK1 (antibody, human IgG1, kappa)
heavy: QVTLKESGPVLVKPTETLTLTCTVSGIDLSHDDISWVRQAPGKGLEWVGIISYAGSTYYASWAKGRLTISKDTSKNQVVLTMTNMDPVDTATYYCARGVPAYSHGGDLWGQGTLVTVSSASTKGPSVFPLAPSSKSTSGGTAALGCLVKDYFPEPVTVSWNSGALTSGVHTFPAVLQSSGLYSLSSVVTVPSSSLGTQTYICNVNHKPSNTKVDKKVEPKSCDKTHTCPPCPAPELLGGISVFLFPPKPKDTLMISRTPEVTCVVVDVSDEDPEVKFNWYVDGVEVHNAKTKPREEQYNSTYRVVSVLTVLHQDWLNGKEYKCKVSNKALPKPIEKTISKAKGQPREPQVYTLPPSREEMTKNQVSLTCLVKGFYPSDIAVEWESNGQPENNYKTTPKVLDSDGSFFLYSKLTVDKSRWQQGNVFSCSVMHEALHNHYTQKSLSLSP
light: DIVMTQSPATLSLSPGERATLSCTSSQSVYHANWLSWFQQKPGQPPKLLIYWASTLAYGVPSRFSGSGSGTDFTLTISSLQPEDAATYYCAGGYGGGRYAFGQGTKVEIKRTVAAPSVFIFPPSDEQLKSGTASVVCLLNNFYPREAKVQWKVDNALQSGNSQESVTEQDSKDSTYSLSSTLTLSKADYEKHKVYACEVTHQGLSSPVTKSFNRGEC
For B3, in assay [1], the “KD fold (SG1 = 1)” value was determined as 0.68 fold. For the same molecule, the Kd in [2] is 4500 nM; in [3] it was 1100 nM; in [4], 820 nM; in assay [5], 990 nM; in [6] it was 690 nM; in [7], 9200 nM. For the same molecule, the Kd stood at 5900 nM in assay [8] and 1900 nM in [9].

B4: M103205H795-MY270/M103202L889-SK1 (antibody, human IgG1, kappa)
heavy: QVTLKESGPVLVKPTETLTLTCTVSGIDLSHDDISWVRQAPGKGLEWVGIISYAGSTYYASWAKGRLTISKDTSKNQVVLTMTNMDPVDTATYYCARGVPAYSHGGDLWGQGTLVTVSSASTKGPSVFPLAPSSKSTSGGTAALGCLVKDYFPEPVTVSWNSGALTSGVHTFPAVLQSSGLYSLSSVVTVPSSSLGTQTYICNVNHKPSNTKVDKKVEPKSCDKTHTCPPCPAPELLHGPSVFLFPPKPKDTLMISRTPEVTCVVVDVSDEDPEVKFNWYVDGVEVHNAKTKPREEQYNSTYRVVSVLTVLHQDWLNGKEYKCKVSNKALPKPIEKTISKAKGQPREPQVYTLPPSREEMTKNQVSLTCLVKGFYPSDIAVEWESNGQPENNYKTTPKVLDSDGSFFLYSKLTVDKSRWQQGNVFSCSVMHEALHNHYTQKSLSLSP
light: DIVMTQSPATLSLSPGERATLSCTSSQSVYHANWLSWFQQKPGQPPKLLIYWASTLAYGVPSRFSGSGSGTDFTLTISSLQPEDAATYYCAGGYGGGRYAFGQGTKVEIKRTVAAPSVFIFPPSDEQLKSGTASVVCLLNNFYPREAKVQWKVDNALQSGNSQESVTEQDSKDSTYSLSSTLTLSKADYEKHKVYACEVTHQGLSSPVTKSFNRGEC
In the case of B4, the “KD fold (SG1 = 1)” value in [1] was found to be 0.33 fold. Besides, the Kd in [2] is 1800 nM; in assay [3], 530 nM; in [4], 73 nM; in assay [5], 1100 nM; in assay [6] it was 370 nM; in assay [7], 3700 nM. Moreover, the Kd in [8] and in assay [9] was 2500 nM in each case.

The record behind these values is patent US20200317768A1 (published 2020).
